Assay results from US20250340659A1 (PETMEDIX, published 2025).
Where a chain is given by its changes, count along the chain named. Read-outs that look alike come from different tables or passages of the source.

T1: canine OX40L, full length membrane form, expressed on HEK293 cells (canine)
T1 sequence: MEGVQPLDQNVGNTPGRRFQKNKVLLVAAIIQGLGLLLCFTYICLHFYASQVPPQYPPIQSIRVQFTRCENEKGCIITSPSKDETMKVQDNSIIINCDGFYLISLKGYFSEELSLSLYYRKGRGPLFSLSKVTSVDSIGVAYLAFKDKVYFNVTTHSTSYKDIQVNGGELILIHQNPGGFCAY

T2: canine OX40L, full length membrane form, expressed on HEK293 cells (canine)
T2 construct: also called OX40L expressing HEK; HEK OX40L cells
T2 chain: T1 sequence

T3: recombinant canine OX40L ECD-TNCc-HIS protein (canine)
T3 construct: also called Trimeric OX40L probe (HIS tag); trimeric canine OX40L
T3 chain: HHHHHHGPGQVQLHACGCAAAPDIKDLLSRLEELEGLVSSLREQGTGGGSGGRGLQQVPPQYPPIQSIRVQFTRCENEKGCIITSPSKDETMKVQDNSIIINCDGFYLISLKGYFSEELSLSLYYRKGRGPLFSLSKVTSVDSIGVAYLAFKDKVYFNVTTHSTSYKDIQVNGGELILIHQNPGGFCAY

B1: PMX106 (antibody, V domains shown)
VH: EVQLVESGGDLVKPGGSLRLSCVASGFTFSSYHMSWVRQAPGKGLQWVAYINSGGSSTSYADAVKGRFTISRDNAKNTLYLQMNSLRAEDTAVYYCAGFIWTHFDYWGQGTLVTVSS
VL: DIVMTQTPPSLSVSPRETASISCKASQSLLHSDGNTYLDWYLQKPGQSPQLLIYLVSNRFTGVSDRFSGSGSGTDFTLRISRVEANDTGVYYCGQGTQLWTFGAGTKVELK
B2: PMX293 (antibody, V domains shown)
VH: EVRLLESGGDLVKPAGSLRLSCAVSGFTFSTYDMSWVRQAPGKGLQWVAYITYDGRTTSYTDTVKGRFTVSRDNAKNMLYLKMNSLRSEDAAVYYCAKAHRGWFFDHWGQGTLVTVSS
VL: SYVLTQLPSVSVTLRQTARITCGGDSIGSKNVYWYQQKLGQAPVLIIYDDTSRPSGIPERFSGANSGTTATLTISGALAEDEADYYCQVWDSSTGVFGGGTHLTVL
B3: PMX035 (antibody, V domains shown)
VH: EVQLVESGGDLVKPGGSLRLSCVASGFTFSNFEMYWVRQAPGKGLEWVARIYKSGSTTYHSERVKGRFTISKDSATNMAFLQMNSLRAEDTAVYYCTSASSTGWRFDYWGQGTLVTVSS
VL: B2 VL with S29R, Y33C, Y35F, T51N, T68N, V96I
notes: also called PMX35
B4: PMX294 (antibody, V domains shown)
VH: EVQLVESGGDLVKPEGSLRLSCAVSGFTFSSNDMSWVRQAPGKGLQWVAYITYDGRSTSYTDIVKGRFTVSRDNAKNTLYLQMNSLRSEDAAVYYCAKAQRGWFFDYWGQGTLVTVSS
VL: B2 VL with T51D, F61I, T68N
B5: PMX040 (antibody, V domains shown)
VH: B3 VH with K53E, S56T, S61A, R63G, S74N, A75V, T76K, F80Y, T102S, G103S
VL: B2 VL with S29R, Y33C, Y35F, V44I, T51S, T68N, V96I
notes: also called PMX40
B6: PMX043 (antibody)
heavy: EVQLVESGGDLVKPEGSLRLSCVVSGFTFSSYDMSWVRQAPGKGLQWVAYITNDGRYTSYTDAVKGRFTISRDNAKNTLYLQMNSLRTEDTAIYYCAKHGSSWSRGRFAMDYWGQGTSLFVSSASTTAPSVFPLAPSCGSTSGSTVALACLVSGYFPEPVTVSWNSGSLTSGVHTFPSVLQSSGLYSLSSMVTVPSSRWPSETFTCNVAHPASKTKVDKPVPKRENGRVPRPPDCPKCPAPESLGGPSVFIFPPKPKDTLLIARTPEVTCVVVDLGREDPEVQISWFVDGKQMQTAKTQPREEQFNGTYRVVSVLPIGHQDWLKGKQFTCKVNHIGLPSPIERTISKARGQAHQPSVYVLPPSREELSKNTVSLTCLIKDFFPPDIDVEWQSNGQQEPESKYRTTPPQLDEDGSYFLYSKLSVDKSRWQRGDTFICAVMHEALHNHYTQKSLSHSPGK
VL: SYVLTQLPSKNVTLNQPAHITCGGDSIGTKSVHWYQQKLGQAPVLIIFYDSSRPTGIPERFSGANSGNTATLTISGALAEDEADYYCQVWDSNASVFGGGTHLTVL
notes: also called PMX43
B7: PMX044 (antibody)
heavy: EVQLVESGGDPVKPEGSQRLSCVVSGFTFSSYDMSWVRQAPGKGLQWVAYITSDGRSTSYTDAVKGRFTISRDNARNTLFLQMNSLRTEDTAVYYCARHSSSWSRGRFGMDYWGHGTSLFVSSASTTAPSVFPLAPSCGSTSGSTVALACLVSGYFPEPVTVSWNSGSLTSGVHTFPSVLQSSGLYSLSSMVTVPSSRWPSETFTCNVAHPASKTKVDKPVPKRENGRVPRPPDCPKCPAPESLGGPSVFIFPPKPKDTLLIARTPEVTCVVVDLGREDPEVQISWFVDGKQMQTAKTQPREEQFNGTYRVVSVLPIGHQDWLKGKQFTCKVNHIGLPSPIERTISKARGQAHQPSVYVLPPSREELSKNTVSLTCLIKDFFPPDIDVEWQSNGQQEPESKYRTTPPQLDEDGSYFLYSKLSVDKSRWQRGDTFICAVMHEALHNHYTQKSLSHSPGK
VL: B6 VL with N15K, S26N, T29S, F48Y, N93S, S95G
notes: also called PMX44
B8: PMX046 (antibody)
heavy: B7 heavy with P11L, Q18L, S25A, S30N, S57F, R76K, F80Y, N84S, S104Y, Y112F
VL: B6 VL with N15K, S26N, T29S, V44I, F48Y, N93S
notes: also called PMX46
B9: PMX026 (antibody, V domains shown)
VH: EVHLVESGGDLVKPGGSLRLSCVASGFTFSSYHMSWVRQAPGKGLQWVAFINAGEISTNYADAVKGRFTISRDNAKNILYLQMNSLRAEDTAVYYCASGHIWIRPFDYWGQGTLVTVSS
VL: SYVLTQLPSMSVTLRQTARITCEGDSIGRKRVNWYQQKLGQVPVLIIYDDDSRPSGIPERFSGANSGNTATLTISGALAEDEAEYYCQVWDSSNNWVFGEGTQLTVL
notes: also called PMX26

Assays:
[1] = molecular target: T1, canine OX40L, full length membrane form, expressed on HEK293 cells (canine); assay: flow cytometry
[2] = molecular target: T1, canine OX40L, full length membrane form, expressed on HEK293 cells (canine); assay: flow cytometry, OX40L HEK minus WT HEK
[3] = molecular target: T1, canine OX40L, full length membrane form, expressed on HEK293 cells (canine); assay: cell-based or functional assay
[4] = molecular target: T2, canine OX40L, full length membrane …; assay: flow cytometry
Summary of the method: (§1)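 CHO supernatants at 1, 5 or 10 μg/ml in PBS/3% FBS incubated 30′ on ice with cells surface-expressing canine OX40L. Bound antibody detected with fluorescent anti-canine Fc secondary (1:1000, 30 min, dark) and measured by flow cytometry, with parental WT HEK signal subtracted where stated.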

[5] = molecular target: T2, canine OX40L, full length membrane …; assay: cell-based or functional assay
[6] = molecular target: T3, recombinant canine OX40L ECD-TNCc-HIS …; assay: SPR KD1, bivalent analyte model
Summary of the method: (§2)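 Purified antigen amine-coupled at low density to a CM5 chip; candidate antibodies injected as analyte over a concentration range. Kinetic curves fitted with a bivalent analyte model to give functional affinity and dissociation rates.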

[7] = molecular target: T3, recombinant canine OX40L ECD-TNCc-HIS …; assay: SPR Koff (kd2)
Summary of the method: as §2

[8] = molecular target: T2, canine OX40L, full length membrane …; assay: flow cytometry, OX40L HEK minus WT HEK
Summary of the method: as §1

[9] = molecular target: T3, recombinant canine OX40L ECD-TNCc-HIS …; assay: SPR Koff (kd1)
Summary of the method: as §2

Molecule | GEO mean OX40L expressing HEK [1] | GEO mean difference [2] | % Signal Inhibition Average [3] [%] | % Signal Inhibition Rep1 [3] [%] | % Signal Inhibition Rep2 [3] [%] | % Signal Inhibition Rep3 [3] [%] | GEO mean OX40L expressing HEK [4] | % Signal Inhibition Average [5] [%] | % Signal Inhibition Rep1 [5] [%] | % Signal Inhibition Rep2 [5] [%] | % Signal Inhibition Rep3 [5] [%] | Kd [6] [nM] | koff [7] [s⁻¹] | GEO mean difference [8] | koff [9] [s⁻¹]
neg CTR | 19600 | -4380 | – | – | – | – | – | – | – | – | – | – | – | – | –
B1 | 7760 | 4100 | -17.2 | -9.89 | -4.12 | -37.6 | – | – | – | – | – | – | – | – | –
B2 | – | – | – | – | – | – | 602000 | 73.7 | 81.6 | 77.5 | 62.1 | 1 | 145 | 598000 | 0.000387
B3 | – | – | – | – | – | – | 1.41e+06 | 73.5 | 85.3 | 67.4 | 67.8 | 269 | 0.000498 | 1.38e+06 | 0.0311
B4 | – | – | – | – | – | – | 595000 | 78.6 | 94 | 88.7 | 53 | 14.4 | 2.69 | 591000 | 0.00155
B5 | – | – | – | – | – | – | 1.18e+06 | 77.1 | 75.4 | 84.2 | 71.8 | 1.26 | 0.436 | 1.15e+06 | 0.000748
B6 | – | – | – | – | – | – | 1.28e+06 | 80.8 | 69.2 | 77.3 | 96.1 | 17 | 0.0022 | 1.25e+06 | 0.00249
B7 | – | – | – | – | – | – | 1.53e+06 | 75.1 | 75.7 | 66 | 83.6 | 8.23 | 0.0598 | 1.5e+06 | 0.000171
B8 | – | – | – | – | – | – | 1.25e+06 | 84.8 | 84.8 | 69.5 | 100 | 40.4 | 2.02e-05 | 1.22e+06 | 0.00101
B9 | – | – | – | – | – | – | 1.39e+06 | 67.1 | 67.6 | 65.1 | 68.7 | 903 | 0.00131 | 1.36e+06 | 0.00191
